Broadly, the stoichiometry N is the number of molecules, sites or subunits per partner or assembly.

Data set [1] concerns the target non-His-tagged Gme HNHE (Gmet_0936 cleaved off the intein-CBD fusion, with non-native C-terminal residues LEGSS) (Geobacter metallireducens GS-15). As to the kind of experiment: SEC; Superdex 200 5/150 GL; 10 µl of 4 or 8 mg/ml protein injected; Kav against the standards ribonuclease A, ovalbumin and conalbumin. For orientation: In gel filtration, larger molecules generally elute earlier.

Data set [2] concerns the molecule itself. As to the kind of experiment: SEC-MALS; analytical gel filtration on Shodex 802.5 at 4°C in 100 mM NaCl, 0.025% NaN3, 100 mM Tris-HCl pH 7.5, static light scattering and refractive index detectors; Debye analysis; data not shown.

In the case of “non-His-tagged Gme HNHE (Gmet_0936 cleaved off the intein-CBD fusion, with non-native C-terminal residues LEGSS) (enzyme)”, the stoichiometry N in data set [1] stood at 2.

B1: Gmet_0936 protein (putative HNH endonuclease) from Geobacter metallireducens GS-15, with C-terminal LEH6 (enzyme, UniProt Q39X46 1-104, looked up)
chain: MNYFIVEVSEQEVKREKEKARELRRSQWWKNRIARGICHYCGEIFPPEELTMDHLVPVVRGGKSTRGNVVPACKECNNRKKYLLPVEWEEYLDSLESEPSDGEG
modifications: selenomethionine in place of methionine (selenomethionine-labeled)
notes: Gmet_0936, putative HNH endonuclease of Geobacter metallireducens GS-15; full-length gene in a pET21 derivative (pGmR87-21.1); molecular mass with tag 13.3 kDa; The SEC with static light scattering used a thawed aliquot of the crystallization stock (the same protein as in the crystal); also called Gme HNHE (H6); Gmet_0936 (H6); source: E. coli BL21 (DE3) pMGK, selenomethionine-labeled, purified …
Take B1: the “stoichiometry N” value in data set [2] is 2.

The values are drawn from paper PMC3765158, “Structure Determination and Biochemical Characterization of a Putative HNH Endonuclease from Geobacter metallireducens GS-15” (PLoS ONE, 2013).
